Key:
[1] = target: the molecule itself; test: SEC + native gel or EMSA; Superose 6 10/300 Increase in 20 mM HEPES pH 7.4, 150 mM NaCl, 0.003% LMNG, 0.0003% CHS, 1 mM MgCl2; native PAGE 4-20%, Tris-glycine pH 8.8
[2] = target: the molecule itself; test: SEC + native gel or EMSA; Superdex 200 10/300 in 20 mM HEPES pH 7.4, 150 mM NaCl; native gel electrophoresis
[3] = target: the molecule itself; test: SEC + native gel or EMSA; gel filtration of Pma1-ΔC22 by the protocol of wild-type Pma1; fractions 10-16 ml on native PAGE

B1: S. cerevisiae plasma membrane H+-ATPase Pma1, full length, with a C-terminal triple FLAG epitope (enzyme, UniProt P05030 1-918, looked up)
chain: MTDTSSSSSSSSASSVSAHQPTQEKPAKTYDDAASESSDDDDIDALIEELQSNHGVDDEDSDNDGPVAAGEARPVPEEYLQTDPSYGLTSDEVLKRRKKYGLNQMADEKESLVVKFVMFFVGPIQFVMEAAAILAAGLSDWVDFGVICGLLMLNAGVGFVQEFQAGSIVDELKKTLANTAVVIRDGQLVEIPANEVVPGDILQLEDGTVIPTDGRIVTEDCFLQIDQSAITGESLAVDKHYGDQTFSSSTVKRGEGFMVVTATGDNTFVGRAAALVNKAAGGQGHFTEVLNGIGIILLVLVIATLLLVWTACFYRTNGIVRILRYTLGITIIGVPVGLPAVVTTTMAVGAAYLAKKQAIVQKLSAIESLAGVEILCSDKTGTLTKNKLSLHEPYTVEGVSPDDLMLTACLAASRKKKGLDAIDKAFLKSLKQYPKAKDALTKYKVLEFHPFDPVSKKVTAVVESPEGERIVCVKGAPLFVLKTVEEDHPIPEDVHENYENKVAELASRGFRALGVARKRGEGHWEILGVMPCMDPPRDDTAQTVSEARHLGLRVKMLTGDAVGIAKETCRQLGLGTNIYNAERLGLGGGGDMPGSELADFVENADGFAEVFPQHKYRVVEILQNRGYLVAMTGDGVNDAPSLKKADTGIAVEGATDAARSAADIVFLAPGLSAIIDALKTSRQIFHRMYSYVVYRIALSLHLEIFLGLWIAILDNSLDIDLIVFIAIFADVATLAIAYDNAPYSPKPVKWNLPRLWGMSIILGIVLAIGSWITLTTMFLPKGGIIQNFGAMNGIMFLQISLTENWLIFITRAAGPFWSSIPSWQLAGAVFAVDIIATMFTLFGWWSENWTDIVTVVRVWIWSIGIFCVLGGFYYEMSTSEAFDRLMNGKPMKEKKSTRSVEDFMAAMQRVSTQHEKET
notes: Plasma membrane H+-ATPase Pma1, S. cerevisiae, 918-residue protein, full length; Co-purified with endogenous lipids; residues 1-110 are disordered in the structures; The FLAG tag is not reported to be removed; also called Pma1-FL; wild-type Pma1; source: endogenous, tagged in the genome of yeast strain BY4742
- stoichiometry N [1]: 6

B2: SUMO-tagged helix-i (C-terminal 22 residues of Pma1) with an N-terminal 6xHis-SUMO tag and TEV site (domain or fragment, S. cerevisiae, UniProt P05030 897-918, looked up)
chain: TRSVEDFMAAMQRVSTQHEKET
notes: Pma1, S. cerevisiae, helix-i, the C-terminal 22 amino acids (T897-T918); A TEV protease cleavage site lies between the 6xHis-SUMO tag and the peptide; also called C-terminal helix-I peptide; C-tail helix-i; source: E. coli Rosetta (DE3), pET28a, purified (Ni-beads, Superdex 200 gel filtration); not shown: His6, N-terminal, kept; SUMO, N-terminal, kept
- binding result [2]: binds

B3: Pma1-ΔC22, helix-i truncated Pma1 with a C-terminal FLAG tag (domain or fragment, S. cerevisiae, UniProt P05030 1-896, looked up)
chain: MTDTSSSSSSSSASSVSAHQPTQEKPAKTYDDAASESSDDDDIDALIEELQSNHGVDDEDSDNDGPVAAGEARPVPEEYLQTDPSYGLTSDEVLKRRKKYGLNQMADEKESLVVKFVMFFVGPIQFVMEAAAILAAGLSDWVDFGVICGLLMLNAGVGFVQEFQAGSIVDELKKTLANTAVVIRDGQLVEIPANEVVPGDILQLEDGTVIPTDGRIVTEDCFLQIDQSAITGESLAVDKHYGDQTFSSSTVKRGEGFMVVTATGDNTFVGRAAALVNKAAGGQGHFTEVLNGIGIILLVLVIATLLLVWTACFYRTNGIVRILRYTLGITIIGVPVGLPAVVTTTMAVGAAYLAKKQAIVQKLSAIESLAGVEILCSDKTGTLTKNKLSLHEPYTVEGVSPDDLMLTACLAASRKKKGLDAIDKAFLKSLKQYPKAKDALTKYKVLEFHPFDPVSKKVTAVVESPEGERIVCVKGAPLFVLKTVEEDHPIPEDVHENYENKVAELASRGFRALGVARKRGEGHWEILGVMPCMDPPRDDTAQTVSEARHLGLRVKMLTGDAVGIAKETCRQLGLGTNIYNAERLGLGGGGDMPGSELADFVENADGFAEVFPQHKYRVVEILQNRGYLVAMTGDGVNDAPSLKKADTGIAVEGATDAARSAADIVFLAPGLSAIIDALKTSRQIFHRMYSYVVYRIALSLHLEIFLGLWIAILDNSLDIDLIVFIAIFADVATLAIAYDNAPYSPKPVKWNLPRLWGMSIILGIVLAIGSWITLTTMFLPKGGIIQNFGAMNGIMFLQISLTENWLIFITRAAGPFWSSIPSWQLAGAVFAVDIIATMFTLFGWWSENWTDIVTVVRVWIWSIGIFCVLGGFYYEMSTSEAFDRLMNGKPMKEKKS
notes: Plasma membrane H+-ATPase Pma1, S. cerevisiae, lacking helix-i, the last 22 residues (T897-T918) of the 918-residue protein; also called Pma1-△C22; source: S. cerevisiae BY4742 transformed with the PRS423 vector; purified as wild-type Pma1 (anti-FLAG M2, gel filtration)
- binding result [3]: binds

Reference: paper PMC8575881, “Structure and activation mechanism of the hexameric plasma membrane H^+-ATPase” (Nature Communications, 2021)
